# Test results as given in publication PMC10754036.
# Target: PSD95, His tagged recombinant (UniProt P78352)
# Assay: BLI
# Sequence of PSD95, His tagged recombinant (P78352 whole entry): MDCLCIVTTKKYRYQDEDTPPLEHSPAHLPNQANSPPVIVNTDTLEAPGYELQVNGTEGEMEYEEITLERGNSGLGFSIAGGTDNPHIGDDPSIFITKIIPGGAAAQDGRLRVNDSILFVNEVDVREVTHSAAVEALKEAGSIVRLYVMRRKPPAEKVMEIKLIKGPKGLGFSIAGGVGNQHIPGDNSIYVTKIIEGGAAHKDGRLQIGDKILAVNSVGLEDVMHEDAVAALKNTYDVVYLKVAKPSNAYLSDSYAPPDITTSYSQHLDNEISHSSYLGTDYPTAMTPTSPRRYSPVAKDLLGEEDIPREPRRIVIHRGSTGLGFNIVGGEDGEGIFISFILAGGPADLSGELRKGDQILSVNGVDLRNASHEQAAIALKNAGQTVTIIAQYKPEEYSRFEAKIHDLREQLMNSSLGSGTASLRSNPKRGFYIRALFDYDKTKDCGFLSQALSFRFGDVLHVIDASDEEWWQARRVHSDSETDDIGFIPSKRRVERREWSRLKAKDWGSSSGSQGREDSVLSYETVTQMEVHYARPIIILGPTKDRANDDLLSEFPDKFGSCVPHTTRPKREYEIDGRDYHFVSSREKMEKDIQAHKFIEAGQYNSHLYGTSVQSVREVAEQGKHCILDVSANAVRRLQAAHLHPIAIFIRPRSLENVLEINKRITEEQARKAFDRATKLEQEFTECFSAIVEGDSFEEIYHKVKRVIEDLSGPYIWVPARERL
substance,measurement,value
"NS1-SUMO (1918 NS1 covalently fused with SUMO at its C-terminus), His tagged recombinant",Kd,630 nM
